B1: TPR t1 (parent)
chain: GACCAAUCUGCCCUCAGAGCUCGAGAACAUCUUCGGAUGCAGAGGAGGCAGGCUUCGGUGGCGCGAUAGCGCCAACGUCCUCAACCUCCAAUGCAUCCCACCACAUGAUGAUGCCUGAAGAGCCUUGGUUUUUUG

Variants of: B1
Assay: polymerase ribozyme fitness, log enrichment relative to wild type (log ratio); higher = more active; in vitro selection for triplet polymerase activity
In short: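 Mutant libraries were PCR-built and transcribed for each subunit of a heterodimeric triplet polymerase ribozyme and selected for one round in triplicate at −7 °C, frozen, before gel excision of extended constructs and streptavidin-bead capture. Input and output libraries were Illumina-sequenced, keeping genotypes with ≥10 input reads and ≥1 read per output. Fitness is a logarithmic ratio of genotype to wild-type enrichment, in base 2, using inverse-variance-weighted replicate averages.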

Variant | polymerase ribozyme fitness (log ratio)
GACCAAUCUGCCUUCAGAGCUCGAGGACAUCUUCGGAUGCAGAGGAGGCAGGCUUCGGUAGCGCGAUAGCGCCAACGUCCUCAACCUCCAAUCCAUCCCACCACAUGAUGAUGCCUGAAGAGCCUUGGUUUUUUG [C13U A26G G60A G93C] | -4.31
GACCAAUCUGCCUUCAGAGCUCGAGAACUUCUUCGGAUGCAGAGGAGGCAGGCUACGGUAGCGCGAUAGCGCCAACGUCCUCAACCUCCAAUGCAUCCCAGCACAUGAUGAUGCCUGAAGAGCCUUGGUUUUUUG [C13U A29U U55A G60A C101G] | -4.15
GACCAAUCUGCCUUCAGAGCUCGAGAACAUCUUCGGUUGCAGAGGAGGCAGGCUUCGGUGGCGCGGUAGCGCCAACGUCCUCAACCUCCAAUGCAUCCCACCACAUGAUGAUGCCUGAAGAGCCUUGGUUUUUUG [C13U A37U A66G] | -0.629
GACCAAUCUGCCUUCCGAGCUCGAGAACAUCUUCGGAUGCAGAGGAGGCAGGCUUCGGUGGCGCGAUAGCGCCAACGUCCUCAACCUCCAAUGCAUCCCAGCACAUGAUGAUGCCUGAAGAGCCUUGGUUUUUUG [C13U A16C C101G] | -2.83
GACCAAUCUGCCUUCAGAGCUCGAGUACAUCUUCGGAUGUAGAGGAGGCAGGCUUCGGUGGCGCGAUAGCGCCAACGUCCUCAACCUCCAAUGCAUCCCACCACAUGAUGAUGCCUGAAGAGCCUUGGUUUUUUG [C13U A26U C40U] | -2.81
GACCAAUCUGCCUUCAGCGCUCGAGAACAUCUUCGGAUGCAGAGGAGGCAGGCUUCGGUGGCGCGAUAGCGCCAACGUCCUCAACCUCCCAUGCAACCCACCACAUGAUGAUGCCUGAAGAGCCUUGGUUUUUUG [C13U A18C A90C U96A] | -2.27
GACCAAUCUGCCUUCAGAGCUCGAGAACUUCUUCGGAUGCAGAGGUGGCAGGCUUAGGUGGCGCGAUAGCGCCAACGUCCUCAACCUCCAAUGCAUCCCACCACAUGAUGAUGCUUGAAGAGCCUUGGUUUUUUG [C13U A29U A46U C56A C115U] | -2.01
GACCAAUCUGCCUUCAGAGCUCGGGAACAUCUUCGGAUGCAGAGGAGGCAGGCUUCGGUGGCGCGAUAUCGCCAACGUCCUCAACCUCCAAUGCAUCCCACCAUAUGAUGUUGCCUGAAGAGCCUUGGUUUUUUG [C13U A24G G69U C104U A111U] | -1.91
GACCAAUCUGCCUUCUGAGCUCGAGAACAUCUUCGGAUGCAGAGUAGGCAGGCUUCGGUUGCGCGAUAGCGCCAACGUCCUCAACCUCCAAUGCUUUCCACCACAUGAUGAUGCCUGAAGAGCCUUGGUUUUUUG [C13U A16U G45U G60U A95U C97U] | -2.68
GACCAAUCUGCCUUCAGAGCUCGAGAACGUCUUCGGAUGCAGAGGAGGCAGUCUUCGGUGGCGCGAUAGCGCCCACGUCCUCAACCUCCAAUGCAUCCCACCACAUGAUGAUGCCUGAAGAGCCUUGGUUUUUUG [C13U A29G G52U A74C] | -1.84
GACCAAUCUGCCGUCAGAGCUCGAGAACAUCUUCGGAUGCAGAGGAGGCAGGCUUCGGUGGCGCGAUAGCGCCAACGUCCUCAACCUCCAAUGCACCCCAACACAUGAUGAUGCCUGAAGAGCCUUGGUUUUUUG [C13G U96C C101A] | -3.35
GACCAAUCUGCCUUCAGCGCUCGAGAACAUCUUCGGAUGCAGAGGAGGCAGGCUUCGGUGGCGCGAUAGCGCCAACGUCCUCAACCUGCAAAGCAUCCCACCACAUGAUGAUGCCUGAAGAGCCUUGGUUUUUUG [C13U A18C C88G U92A] | -2.48
GACCAAUCUGCCUUCCGAGCUCGAGAACAUCUUCGGAUGCAGAGGAGGCAGGCUUCGGUGGCGCGAUAGCGCCAACGUCCUCAACCUCCAAUGCAUCCCACCACAGGAUGAUGCCUGAAGAGCCUUGGUUUUUUG [C13U A16C U106G] | -2.43
GACCAAUCUGCCUUCCGAGCUCGAGAACAUCUUCGGAUGCAGAGGAGGCAGGCUUCGGUGGCGCGAUAGCGCCAACGUCCUCAUCCUCCAAUGCAUCCCACCACAUGAUGAUGCCUGAAGAGCCUUGGAUUUUUG [C13U A16C A84U U129A] | -3.48
GACCAAUCUGCCUUCAGAGCUCGAGGACAUCUUCGGAUGCAGAGGAGGCAGGCUUCGGUCGCGCGAUAGCGCCAACGUCCUCAACCUCCAAUCCAUCCCACCACAUGAUGAUGCCUGAAGAGCCUUGGUUUUUUG [C13U A26G G60C G93C] | -3.34
GACCAAUCUGCCUUCAGAGCUCGGGAACAUCUUCGGAUGCAGAGGAGGCAGGCUUCGGUGGCGCGAUAGAGCAAACGUCCUCAACCUCCAAUGCAUCCCACCAUAUGAUGUUGCCUGAAGAGCCUUGGUUUUUUG [C13U A24G C70A C73A C104U A111U] | -6.33
GACCAAUCUGCCUUCAGCGCUCGAGAACAUCUUCGGCUUCAGAGGAGGCAGGCUUCAGUGGCGCGAUAGCGCCAACGUCCUCAACCUCCAAUGCAUCCCACCACAUGAUGAUGCCUGAAGAGCCUUGGUUUUUUG [C13U A18C A37C G39U G57A] | -6.61
GACCAAUCUGCCUUCCGAGCUCGAGAACAUCUUCGGAUGCAGAGGAGGCAGGCUUCGGUGGCGCGAUAGCGCAAACGUCCUCAACCUCCAAUGCUUCCCACCACAUGAUGAUGCCUUAAGAGCGUUGGUUUUUUG [C13U A16C C73A A95U G117U C124G] | -1.04
GACCAAUCUGCCUUCAGAGCUCGAGUACAUCUUCGGAUGAAGAGGAGGCAGGCUUCGGUGGCGCGAUAGCGCCAACGUCCUCAACCUCCAAUGCAUCCCACCACAUGAUGAAGCCUGAAGAGCCUUGGUUUUUUG [C13U A26U C40A U112A] | -4.39
GACCAAUCUGCCUUCAGAGCUCGGGAACAUCUUCGUAUGCAGAGGAGGCAGGUUUCGGUGGCGCGAUAGCGCCAACGUGCUCAACCUCCAAUGCAUCUAACCACAUGAUGAUGCCUGAAGAGCCUUGGUUUUUUG [C13U A24G G36U C53U C79G C98U C99A] | -7.05
GACCAAUCUGCCUUCCGAGCUCGAGAACAUCUUCGGAUGCAGAGGAGCCAGGCUUCGGAGGCGCGAUGGCGCCAACGUCCUCAACCUCCAAUGCAUCCCCCCACAUGAUGAUGCCUGAAGCGCCUUGGUUUUUUG [C13U A16C G48C U59A A68G A100C A121C] | -7.2

Variant | polymerase ribozyme fitness (log ratio)
GACCAAUCUGCCUUCAGAGCUCGAGACCAUCUUCGGAUGCAGAGGAGGCAGGCUUCGGUGGCGCGAUAGCGCCAACGUCCUCUCCAUCCAAUGCAUCCCACCACAUGAUGAUGCCUGAAGAGCCUUGGUUUUUUG [C13U A27C A83U A84C C86A] | -3.39
GACCAAUCUGCCUUCCGAGCUCGAGAACAUCUUCGGAUGCAGAGGAGGCAGGCUUCGGUGGCGCGAUAGCGCCAACGUCCUCAACCUCCAAUGCAUCCCACCACAUGAUGAUGCCUGAAGAGCCUUGGUUUUUUG [C13U A16C] | -0.368
GACCAAUCUGCCGUCAGAGCUCGAGAACAUCUUCGGAUGCAGAGGAGGCAGGCUUCGGUGGCGCGAUAGCGCCAACGUCCUCAACCUCCAAUGCAUCCCACCACAUGAUGAUGCCUGAAGAGCCAUGGUUUUUUG [C13G U125A] | -1.62
GACCAAUCUGCCUUCAGAGCUCGAGAACUUCUUCGGAUGCAGAGGAGGCAGGCUUCGGUGGCGCGAUAGCGCCAACGUCCUCAACCUCCAAUGCAUCCCACCACAUGAUGAUGCCUGAAGAGCCUUGGUUUUUUG [C13U A29U] | -1.8
GACCAAUCUGCCUUCAGAGCUCGAGAACAUCUUCGGCUGCAGAGGAGGCAGGCUUCUGUGGCGCGAUAGCGCCAACGUCCUCAACCUCCAAUGCAUCCCACCACAUGAUGAUGCCUGAAGAGCCUUGGUUUUUUG [C13U A37C G57U] | -0.0732
GACCAAUCUGCCGUCAGAGCUCGAGAACAUCUUCGGAUGCAGAGGAGGCAGGCUUCGGUGGCGCGAUAGCGCCAACGUCCUCAACCUCCAAUGCAUCCCACCACAUGAUGAUGCCUGAAGAGCCUUGGUUUUAUG [C13G U133A] | -2.17
GACCAAUCUGCCGUCAGAGCUCGAGAACAUCUUCGGAUGCAGAGGAGGCAGGCUUCGGUGGCGCGAUAGCGCCAACGUCCUCAACCUCCAAUGCAUCCCACCACAUGAUGAAGCCUGAAGAGCCUUGGUUUUUUG [C13G U112A] | 0.148
GACCAAUCUGCCUUCAGUGCUCGAGAACAUCUUCGGAUGCAGCGGAGGCAGGCUUCGGCGGCGCGAUAGCUCCAACGUCCUCAACCUCCAAUGCAUCCCACCACUUGAUGAUGCCUGAAGAGCCUUGGUUUUUUG [C13U A18U A43C U59C G71U A105U] | -4.76
GACCAAUCUGCCUUCAGAGCUCGAGAACAUCUUCGGGUGCAGAGGAGGCAGGCUUCGGUGGCGCGAUAGCGCCAACGUCCUCAACCUCCAAUGCAUCCCACCACAUGAUGAUGCCUGGAGAGCCUUUUUUGUUUG [C13U A37G A118G G127U G128U U131G] | -0.0788
GACCAAUCUGCCUUCGGAGCUCGAGAACAUCUUCGGAUGCAGAGGAGGCUGGCUUCGGUGGCGCGAUAGCGCCAACGUCCUCAACCUCCGAUGCAUCCCACCACAUGAUGAUGCCUGAAGAGCCUUGGUUUUUUG [C13U A16G A50U A90G] | -0.51
GACCAAUCUGCCGUCAGAGCUCGAGAACAUCUUCGGAUGCAGAGGAGGCAGGCUUCGGUGGCGCGAUAGCGCCAACGUCCUCAACCUCCAAUGCACCCCACCACAUGAUGAUGCCUGAAGAGCCUUGGUUUUUUG [C13G U96C] | -2.28
GACCAAUCUGCCUUCAGAGCUCGAGAACAUCUUCGGAUGCGGAGGAGGGAGGCUUCGGUGGCGCGAUAGCGCCAACGUCCUCAACCACCAAUGCAUCCCACCACAUGAUGAUGCCUGAAGAGCCUUGGUUUUUUG [C13U A41G C49G U87A] | -0.587
GACCAAUCUGCCUUCAGAGCUCGAGCACAUCUUCGGAUGCAGAGGAGGCAGGCUUUGGUGGCGCGAUAGCGCCAACGUCCUCAACCUCCAAUGCAUCCCACCACAUGAUGAUGCCUGAAGAGCCUUGGUUUUUUG [C13U A26C C56U] | -5.2
GACCAAUCUGCCUUCAGUGCUCGAGAACAUCUUCUGAUGCAGAGGAGGCGGGCUUCGGUGGCGCGAUAGCACCAACGUCCUCAACCUCCAAUGCAUCCCACCACAUGAUGAUGCCUGAAGAGCGUUGGUUUUUUG [C13U A18U G35U A50G G71A C124G] | -7.8
GACCAAUCUGCCUUCAGAGCUCGAGAUCAUCUUCGGAUGCAGAGGAGGCAGGCUUCGGUGGCGCGAUAGCGCCAACGUCCUCAACCUCCAAUGCAUCCCACCACAUGAUGAUGCCUGAAGAGCCUUGGUUUUUUG [C13U A27U] | -2.33
GACCAAUCUGCCUUCAGAGCUCGAGACCAUCUUCGGAUGCAGAGGAGGCAGGCUUCGGUGGCGCGAUAGCGCCAACGUCCUCAACCUCCAAUGCAUCCCACCACAUGAUGAUGCCUGAAGAGCCUUGGUUUUUUG [C13U A27C] | -2.05
GACCAAUCUGCCUUCGGAGCUCGAGAACAUCUUCGGAUGCAGAGGAGGCAGGCUUCGGUGGCACGAUAGCGCCAACGUCCUCAACCACCAAUGCAUCACACCACAUGAUGAUGCCUGAAGAGGCUUGGUUUUUUG [C13U A16G G63A U87A C98A C123G] | -6.74
GACCAAUCUGCCUUCGGAGCUCGAGAACAUCUUCGGAUGCAGAGGAGGCAGGCUUCGGUGGCGCGAUAGCGCCAACGUCCUCAACCUCCAAUGCAUCCCACCACAUGAUGAUGCCUGAAGUGCCUUGGAUUUUUG [C13U A16G A121U U129A] | 1.78
GACCAAUCUGCCUUCCGAGCUCGAGAACAUCUUCGGAUGCAGAGGAGGCAGGCUUCGGUGGCGCGAUAGCGCCAACGUCCUCAACCUCCAGUGCAUCCCACCAUAUGAUGAUGCCUGAAGAGCCUUGGUUUUUUG [C13U A16C A91G C104U] | -1.72
GACCAAUCUGCCUUCAGAGCUCGAGGACAUCUUCGGAUGCAGAGGAGGCAGGCUUCGGUGGCGCGAUAGCGCCAACGUCCUCAACCUCCAAUGCAUCCCACCACAUGAUGAUGCCUGAAGAGCCUUGGUUUUUUG [C13U A26G] | -2.64
GACCAAUCUGCCUUCAGCGCUCGAGAACAUCUUCGGAUGCAGAGGAGGCAGGCUUCGGUGGCGCGAUAGCGCCAACAUCCUCAACCUCCAAUGCAUCCCACCACAUGAUGAUGCCUGAAGAGCCUUGGUUUUUUG [C13U A18C G77A] | -1.41

Source: the RNAGym collection of RNA variant scans (doi:10.1073/pnas.2313332121)
